In doi:10.1101/2024.05.05.592566:

T1: AbiV (AbiV1, HEPN RNase toxin) (Lactococcus cremoris MG1363, UniProt A2RJ64 1-201)
T1 sequence: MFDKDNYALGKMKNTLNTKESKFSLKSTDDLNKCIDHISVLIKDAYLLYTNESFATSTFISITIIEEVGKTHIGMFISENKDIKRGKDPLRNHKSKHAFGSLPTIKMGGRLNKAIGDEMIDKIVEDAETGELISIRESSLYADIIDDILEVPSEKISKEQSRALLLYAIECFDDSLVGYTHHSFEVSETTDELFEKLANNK


Assays:
[1] = molecular target: N-terminal truncated AbiV lacking its first 23 amino acids (AbiV_Δ23) (L. cremoris MG1363); test: crystal structure
[2] = molecular target: surface lysine methylated full-length AbiV (product of abiV1) from L. cremoris MG1363 (L. cremoris MG1363); test: crystal structure
[3] = molecular target: T1, AbiV (AbiV1, HEPN RNase toxin); test: EMSA

| Molecule | binding result [3] | other results |
| --- | --- | --- |
| N-terminal truncated AbiV lacking its first 23 amino acids (AbiV_Δ23) (domain or fragment) | – | stoichiometry N [1]: 2 |
| surface lysine methylated full-length AbiV (product of abiV1) from L. cremoris MG1363 (enzyme) | – | stoichiometry N [2]: 2 |
| AAUUGAUACUGUCAAUA (ssRNA) [abiV2 motif50-66 (17-mer short RNA)] | no binding | – |
| AAGUAGCUGCAACUACUA (ssRNA) [abiV2 motif85-102 (18-mer short RNA)] | binds | – |
